Laboratory results taken from US20240293512A1 (HANMI PHARM, published 2024).
Bridge positions count the residues as written; N and C are the ends. Square brackets hold non-standard residues; d marks the D form. Ends that are not written are not given here. * marks the point of attachment. Acetyl(2-(4-imidazolyl)) = O=C(Cc1c[nH]cn1)*; Aib = CC(C)(N)C(=O)O

T1: human GIP receptor (human, UniProt P48546 22-466)
T1 sequence (looked up): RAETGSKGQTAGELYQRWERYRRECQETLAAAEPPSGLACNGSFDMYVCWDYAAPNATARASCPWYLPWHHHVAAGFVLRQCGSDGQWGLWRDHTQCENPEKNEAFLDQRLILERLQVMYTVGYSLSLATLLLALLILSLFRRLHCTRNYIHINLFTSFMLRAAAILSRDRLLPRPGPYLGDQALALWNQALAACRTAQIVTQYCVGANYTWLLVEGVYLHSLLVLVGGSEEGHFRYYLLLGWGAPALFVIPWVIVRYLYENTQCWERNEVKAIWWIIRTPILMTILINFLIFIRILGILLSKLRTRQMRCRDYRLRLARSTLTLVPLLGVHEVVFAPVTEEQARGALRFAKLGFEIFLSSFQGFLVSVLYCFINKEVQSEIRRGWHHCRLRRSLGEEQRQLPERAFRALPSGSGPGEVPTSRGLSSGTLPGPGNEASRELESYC

B1: triple agonist of SEQ ID NO: 99 (peptide)
peptide: Y[Aib]QGTFTSDYSKALDEKAAKDFVNWLLDHHPSSGQPPPSC
modifications: bridge 16-20
B2: triple agonist of SEQ ID NO: 91 (peptide)
peptide: [Acetyl(2-(4-imidazolyl))][Aib]EGTFTSDYSIAMDEIHQKDFVDWLLAEKC
modifications: bridge 16-20
B3: triple agonist of SEQ ID NO: 85 (peptide)
peptide: [Acetyl(2-(4-imidazolyl))][Aib]QGTFTSDYSIAMDEIHQKDFVNWLLAQC
modifications: bridge 16-20
B4: triple agonist of SEQ ID NO: 96 (peptide)
peptide: Y[Aib]QGTFTSDYSKYLDEKRAKEFVQWLLDHCPSSGQPPPS
modifications: bridge 16-20
B5: triple agonist of SEQ ID NO: 93 (peptide)
peptide: [Acetyl(2-(4-imidazolyl))][Aib]QGTFTSDYSKYLDEKRQKEFVNWLLAQKC
modifications: bridge 16-20
B6: triple agonist of SEQ ID NO: 92 (peptide)
peptide: [Acetyl(2-(4-imidazolyl))][Aib]QGTFTSDYSIAMDEIHQKDFVNWLLAQKC
modifications: bridge 16-20
B7: triple agonist of SEQ ID NO: 14 (peptide)
peptide: [Acetyl(2-(4-imidazolyl))]GQGTFTSDYSIQLDEIAVRDFVEWLKNGGPSSGAPPPSHG
B8: triple agonist of SEQ ID NO: 98 (peptide)
peptide: Y[Aib]QGTFTSDYSKALDEKAAKEFVNWLLDHHPSSGQPPPSC
modifications: bridge 16-20
B9: triple agonist of SEQ ID NO: 89 (peptide)
peptide: [Acetyl(2-(4-imidazolyl))][Aib]QGTFTSDYSKYLDEKRQKEFVQWLLDTKC
modifications: bridge 16-20
B10: triple agonist of SEQ ID NO: 97 (peptide)
peptide: Y[Aib]QGTFTSDYSKYLDEKRAKEFVQWLLDCHPSSGQPPPS
modifications: bridge 16-20
B11: triple agonist of SEQ ID NO: 101 (peptide)
peptide: Y[Aib]QGTFTSDYSKALDEKAAKEFVNWLLDQHPSSGQPPPSC
modifications: bridge 16-20
B12: triple agonist of SEQ ID NO: 90 (peptide)
peptide: [Acetyl(2-(4-imidazolyl))][Aib]EGTFTSDYSIAMDEIHQKDFVNWLLAQKC
modifications: bridge 16-20
B13: triple agonist of SEQ ID NO: 9 (peptide)
peptide: H[Aib]QGTFTSDVSKYLDGQAAQEFVAWLLAGC
B14: triple agonist of SEQ ID NO: 100 (peptide)
peptide: Y[Aib]QGTFTSDYSKALDEKAAKEFVQWLLDQHPSSGQPPPSC
modifications: bridge 16-20

Each binder was assayed against T1, human GIP receptor (assay: cell-based or functional assay).
In the case of B1, the “In vitro activity compared with native peptide (%) vs GIP (cAMP EC50)” value (from here on “In vitro activity … (%) vs GIP (cAMP EC50)”) is reported as 57.7%. For B2, the “In vitro activity … (%) vs GIP (cAMP EC50)” value was 0.3%. For B3, the “In vitro activity … (%) vs GIP (cAMP EC50)” value was 0.3%. B4 was tested, and the “In vitro activity … (%) vs GIP (cAMP EC50)” value was 5.2%. B5 was tested, and the “In vitro activity … (%) vs GIP (cAMP EC50)” value was 0.7%. For B6, the “In vitro activity … (%) vs GIP (cAMP EC50)” value was 0.4%. With B7 the “In vitro activity … (%) vs GIP (cAMP EC50)” value was less than 0.1%. For B8, the “In vitro activity … (%) vs GIP (cAMP EC50)” value was 47.1%. B9 was tested, and the “In vitro activity … (%) vs GIP (cAMP EC50)” value was less than 0.1%. For B10, the “In vitro activity … (%) vs GIP (cAMP EC50)” value was 2.6%. B11 was tested, and the “In vitro activity … (%) vs GIP (cAMP EC50)” value was 40.1%. For B12, the “In vitro activity … (%) vs GIP (cAMP EC50)” value was less than 0.1%. B13 was tested, and the “In vitro activity … (%) vs GIP (cAMP EC50)” value was less than 0.1%. For B14, the “In vitro activity … (%) vs GIP (cAMP EC50)” value was 118%.

What follows are binders tested against human GLP-1 receptor (human, UniProt P43220 24-463) (assay: cell-based or functional assay).
With B1 the “In vitro activity compared with native peptide (%) vs GLP-1 (cAMP EC50)” value (“In vitro activity … (%) vs GLP-1 (cAMP EC50)” for short) was 20.9%. With B2 the “In vitro activity … (%) vs GLP-1 (cAMP EC50)” value was 31.9%. For B3, the “In vitro activity … (%) vs GLP-1 (cAMP EC50)” value was 4.3%. B4 was tested, and the “In vitro activity … (%) vs GLP-1 (cAMP EC50)” value was 34.4%. For B5, the “In vitro activity … (%) vs GLP-1 (cAMP EC50)” value was 5.7%. For B6, the “In vitro activity … (%) vs GLP-1 (cAMP EC50)” value was 0.8%. B7 was tested, and the “In vitro activity … (%) vs GLP-1 (cAMP EC50)” value was 28%. B8 was tested, and the “In vitro activity … (%) vs GLP-1 (cAMP EC50)” value was 28.1%. B9 was tested, and the “In vitro activity … (%) vs GLP-1 (cAMP EC50)” value was 7.1%. For B10, the “In vitro activity … (%) vs GLP-1 (cAMP EC50)” value was 10.5%. B11 was tested, and the “In vitro activity … (%) vs GLP-1 (cAMP EC50)” value was 23.2%. With B12 the “In vitro activity … (%) vs GLP-1 (cAMP EC50)” value was 7.4%. In the case of B13, the “In vitro activity … (%) vs GLP-1 (cAMP EC50)” value is reported as 32.1%. B14 was tested, and the “In vitro activity … (%) vs GLP-1 (cAMP EC50)” value was 42.2%.

The binders below were run against human GCG receptor (human, UniProt P47871 26-477) (assay: cell-based or functional assay).
human GCG receptor, sequence (P47871 26-477): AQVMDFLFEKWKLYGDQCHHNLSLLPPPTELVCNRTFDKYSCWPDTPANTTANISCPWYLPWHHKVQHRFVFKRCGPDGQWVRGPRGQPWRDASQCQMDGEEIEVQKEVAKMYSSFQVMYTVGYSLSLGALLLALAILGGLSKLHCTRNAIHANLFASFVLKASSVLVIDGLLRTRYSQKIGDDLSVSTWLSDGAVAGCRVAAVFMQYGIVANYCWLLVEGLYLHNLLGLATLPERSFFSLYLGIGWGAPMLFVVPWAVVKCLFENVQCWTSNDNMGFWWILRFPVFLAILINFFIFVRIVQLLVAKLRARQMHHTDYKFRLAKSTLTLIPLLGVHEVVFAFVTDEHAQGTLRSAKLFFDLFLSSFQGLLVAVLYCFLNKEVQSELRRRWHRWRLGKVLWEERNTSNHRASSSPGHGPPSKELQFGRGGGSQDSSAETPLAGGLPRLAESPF
In the case of B1, the “In vitro activity compared with native peptide (%) vs Glucagon (cAMP EC50)” value (shortened to “In vitro activity … (%) vs Glucagon (cAMP EC50)”) is reported as 14.9%. B2 was tested, and the “In vitro activity … (%) vs Glucagon (cAMP EC50)” value was 16.8%. B3 was tested, and the “In vitro activity … (%) vs Glucagon (cAMP EC50)” value was less than 0.1%. With B4 the “In vitro activity … (%) vs Glucagon (cAMP EC50)” value was 195%. With B5 the “In vitro activity … (%) vs Glucagon (cAMP EC50)” value was 0.3%. In the case of B6, the “In vitro activity … (%) vs Glucagon (cAMP EC50)” value is reported as less than 0.1%. With B7 the “In vitro activity … (%) vs Glucagon (cAMP EC50)” value was less than 0.1%. For B8, the “In vitro activity … (%) vs Glucagon (cAMP EC50)” value was 8.2%. With B9 the “In vitro activity … (%) vs Glucagon (cAMP EC50)” value was 0.7%. For B10, the “In vitro activity … (%) vs Glucagon (cAMP EC50)” value was 62.8%. In the case of B11, the “In vitro activity … (%) vs Glucagon (cAMP EC50)” value is reported as 13.9%. For B12, the “In vitro activity … (%) vs Glucagon (cAMP EC50)” value was less than 0.1%. For B13, the “In vitro activity … (%) vs Glucagon (cAMP EC50)” value was 0.13%. B14 was tested, and the “In vitro activity … (%) vs Glucagon (cAMP EC50)” value was 12.7%.
